Results reported in the Human Domainome abundance scans (Beltran et al. 2025).
± gives the uncertainty stated by the source.

B1: Peripheral plasma membrane protein CASK, residues 488 to 569; numbered along this chain, O14936 (parent)
chain: VRLVQFQKNTDEPMGITLKMNELNHCIVARIMHGGMIHRQGTLHVGDEIREINGISVANQTVEQLQKMLREMRGSITFKIVP

Variants of: B1
Experiment: abundance fitness (aPCA) (normalised: wild type 0, dead -1); higher = more abundant; growth selection in yeast, the domain comes from the species named
Settings: Homo sapiens

Variant	abundance fitness
VRLVQFQKNTDEPMGITLKMNQLNHCIVARIMHGGMIHRQGTLHVGDEIREINGISVANQTVEQLQKMLREMRGSITFKIVP [E22Q]	0.008 ± 0.039
VRLVQFQKNTDEPMGITLKMNGLNHCIVARIMHGGMIHRQGTLHVGDEIREINGISVANQTVEQLQKMLREMRGSITFKIVP [E22G]	0.022 ± 0.023
VRLVQFQKNTDEPMGITLIMNELNHCIVARIMHGGMIHRQGTLHVGDEIREINGISVANQTVEQLQKMLREMRGSITFKIVP [K19I]	-0.102 ± 0.045
VRLVQFQKNTDEPMGITLWMNELNHCIVARIMHGGMIHRQGTLHVGDEIREINGISVANQTVEQLQKMLREMRGSITFKIVP [K19W]	-0.195 ± 0.03
VRLVQFQKNTDEPMGITLLMNELNHCIVARIMHGGMIHRQGTLHVGDEIREINGISVANQTVEQLQKMLREMRGSITFKIVP [K19L]	-0.026 ± 0.028
VRLVQFQKNTFEPMGITLKMNELNHCIVARIMHGGMIHRQGTLHVGDEIREINGISVANQTVEQLQKMLREMRGSITFKIVP [D11F]	-0.251 ± 0.16
VRLVQFQKNTDEPMGITLKMNELNHCIVARIMHGGMIHRQGTLHVGDEIREINGISVANQTVEQLQKMLREMRGRITFKIVP [S75R]	-0.011 ± 0.023
VRLVQFQKNTDEPMGITLKMNELNHCIVARIMHGGMIHRQGTLHVGDEIREINGISVANQTVEQLQKMLREMRGKITFKIVP [S75K]	0.005 ± 0.033
VRLVQFQKNTDEPMGITLKMNELNHCIVARIMHGGMIHRHGTLHVGDEIREINGISVANQTVEQLQKMLREMRGSITFKIVP [Q40H]	-0.096 ± 0.041
VRLVQFQKNTDEPMGITLKMNELNHCIVARIMHGGMIHRTGTLHVGDEIREINGISVANQTVEQLQKMLREMRGSITFKIVP [Q40T]	-0.067 ± 0.026
VRLVQFQKNTDEPMGITLKMNELNHCIPARIMHGGMIHRQGTLHVGDEIREINGISVANQTVEQLQKMLREMRGSITFKIVP [V28P]	-1.08 ± 0.097
VRLVQFQKNTDEPMGITLKMNELNHCIVARIMHGGMIHRQGTLHVGDEIREINGISVANQTVGQLQKMLREMRGSITFKIVP [E63G]	-0.027 ± 0.02
VRLVQFQKNTDEPMGITLKMNELNHCIVARIMHGGMIHRQGTLHVGDEIREINGISVANQTVWQLQKMLREMRGSITFKIVP [E63W]	-0.123 ± 0.027
VRLVQFQKNTDEPMGITLKMNELNHCIVARIMHGGMIHRQGTLHVGDEIREINGISVANQTVEQLQKMLCEMRGSITFKIVP [R70C]	-0.029 ± 0.03
VRLVQFQKNTDEPMGITLKMNELNHCIVARIMHGGMIHRQGTLHVGDEIREINGISVANQTVEQLQKMLIEMRGSITFKIVP [R70I]	-0.078 ± 0.038
VRLVHFQKNTDEPMGITLKMNELNHCIVARIMHGGMIHRQGTLHVGDEIREINGISVANQTVEQLQKMLREMRGSITFKIVP [Q5H]	-0.049 ± 0.033
VRLVQFQKNTDEPMGITLKMNELNHCIVARIMHGGMIHRQGTLHVGDEIRTINGISVANQTVEQLQKMLREMRGSITFKIVP [E51T]	-0.301 ± 0.29
VRLVQFQKNTDEPMGITLKMNELNHCIVARIMHGGMIHRQGTLHVGDEIREINGISVANQTVEQLQKMLREMRGSITFLIVP [K79L]	-0.09 ± 0.029
VRLVQFQKNTDEPMGITLKMNELNHCIVARIMHGGMIHRQGTLFVGDEIREINGISVANQTVEQLQKMLREMRGSITFKIVP [H44F]	-0.125 ± 0.04
VRLVQFQKNTDEPMGITLKMNELNHCIVARIMHGGMIHRQGTLHVGDVIREINGISVANQTVEQLQKMLREMRGSITFKIVP [E48V]	-0.06 ± 0.033
VRLVQFQKNTDEPMGITLKMNELNHCIVARIMHGGMIHRQGTLHVGDKIREINGISVANQTVEQLQKMLREMRGSITFKIVP [E48K]	-0.19 ± 0.055
VRLVQFQKNTDEPMGITLKMNEKNHCIVARIMHGGMIHRQGTLHVGDEIREINGISVANQTVEQLQKMLREMRGSITFKIVP [L23K]	0.005 ± 0.035
VRLVQFQKNTDEPMGITLKMNELNHCIVARIMHGGMIHRQGTLHVGDEIREINGISVANQTVEQLQKMLREKRGSITFKIVP [M72K]	-0.072 ± 0.032

Variant	abundance fitness
VRLVQFQKNTDEPMGITLKMNELNHCIVARIMHGGMIHRQGTLHVGDEIREINGISVANQTVEQLQKMLRETRGSITFKIVP [M72T]	-0.022 ± 0.031
VRLVQFQKNTDEPMGITLKMNELNHCIVARIMHDGMIHRQGTLHVGDEIREINGISVANQTVEQLQKMLREMRGSITFKIVP [G34D]	-0.032 ± 0.051
VRLVQFQKNTDEPMGITLKMNELNHCIVARIMHGGMIHRQGTLHVGDEFREINGISVANQTVEQLQKMLREMRGSITFKIVP [I49F]	-0.721 ± 0.17
VRLVQFQKNTDEPMGITLKMNELNHCIVARIMHGGMIHRQGTLHVGDEIREINGISVANQTVEQLQKMLREMRGSITFKEVP [I80E]	-0.883 ± 0.21
VRLVQFQKNTDEPMGITLKMNELNHCIVARIMHGGMIHRQGTLHVGDEIREINGISVANQTVEQLQKMLREMRGSITFKRVP [I80R]	-0.795 ± 0.081
VRLVQFQKNTDEPMGITLKMNELNHCIVARIMHGGMIHRQGTLHVGDEIREINGISVANQTVEQLQKMLREMRGSITFKTVP [I80T]	-0.142 ± 0.038
VRLVQFQKNTDEPMGITLKMNELNHCIVARIMHGGMIHRQGTLHVGDEIREINGISVANQTVEQLQKMLRAMRGSITFKIVP [E71A]	-0.03 ± 0.025
VRLVQFQKNTDEPMGITLKMNELNHCIVARIMHGGMIHRQGTLHVGDEIREINGISVANQTVEQLPKMLREMRGSITFKIVP [Q66P]	-0.521 ± 0.034
VRLVQFQKNTDEPMGITLKMNELNHCIVARIMHGGMIHRQGTLHVGDEIREINGISVANQTVEQLNKMLREMRGSITFKIVP [Q66N]	-0.016 ± 0.047
VRLVQFQKNTDEPMGITLKMNELNHCIVARIMHGGMIHRQGTLHSGDEIREINGISVANQTVEQLQKMLREMRGSITFKIVP [V45S]	-0.232 ± 0.051
VRLVQFQKNTDEPMGITLKYNELNHCIVARIMHGGMIHRQGTLHVGDEIREINGISVANQTVEQLQKMLREMRGSITFKIVP [M20Y]	-0.01 ± 0.066
VRLVQFQKNTDEPMGITLKMNELNHCIVARIMHGGMIHRQGELHVGDEIREINGISVANQTVEQLQKMLREMRGSITFKIVP [T42E]	0.012 ± 0.026
VRLVQFQKNTDEPMGDTLKMNELNHCIVARIMHGGMIHRQGTLHVGDEIREINGISVANQTVEQLQKMLREMRGSITFKIVP [I16D]	-0.933 ± 0.21
VRLVQFQKNTDEPMGITLKMNELNHCIVARIMHGGMIHRQGTLHVGDEIREINGISVANSTVEQLQKMLREMRGSITFKIVP [Q60S]	-0.042 ± 0.025
VRLVQFQKNTDEPMGITLKMNELNHCIVARIMHGGMIHRQGTLHVGDEIREINGRSVANQTVEQLQKMLREMRGSITFKIVP [I55R]	0.007 ± 0.02
VRLVQFQKNTDEPMGITLKMNELNHCIVARIMHGGMIHRQGTLHVGDEIREINGVSVANQTVEQLQKMLREMRGSITFKIVP [I55V]	-0.035 ± 0.024
VRLVQFQKNTDEPMGITLKMNELNHCIVARIMHGGMIHRQGTLHVIDEIREINGISVANQTVEQLQKMLREMRGSITFKIVP [G46I]	-1.01 ± 0.24
VRLVQFQKNTDEPMGITLKMNELNHCIVARIMHGGMIHRQGTLHVHDEIREINGISVANQTVEQLQKMLREMRGSITFKIVP [G46H]	-0.471 ± 0.13
VRLVQFSKNTDEPMGITLKMNELNHCIVARIMHGGMIHRQGTLHVGDEIREINGISVANQTVEQLQKMLREMRGSITFKIVP [Q7S]	-0.042 ± 0.025
VRLVQFNKNTDEPMGITLKMNELNHCIVARIMHGGMIHRQGTLHVGDEIREINGISVANQTVEQLQKMLREMRGSITFKIVP [Q7N]	0.02 ± 0.043
VRLVQFQKNTDEQMGITLKMNELNHCIVARIMHGGMIHRQGTLHVGDEIREINGISVANQTVEQLQKMLREMRGSITFKIVP [P13Q]	-0.183 ± 0.078
VRLVQFQKNTDEPMGITLKMHELNHCIVARIMHGGMIHRQGTLHVGDEIREINGISVANQTVEQLQKMLREMRGSITFKIVP [N21H]	-0.25 ± 0.038
VRLVQFQKNTDEPMGITLKMWELNHCIVARIMHGGMIHRQGTLHVGDEIREINGISVANQTVEQLQKMLREMRGSITFKIVP [N21W]	-0.6 ± 0.044

Variant	abundance fitness
VRLVQFQKNTDEPMGITLKMNELNHCIVARIMHGGMIHRQGTLHVGDEIREINGISVANQTVEQLQKMLREMRISITFKIVP [G74I]	-1.13 ± 0.2
VRLVQFQKNTDEPMGITLKMNELNHCIVLRIMHGGMIHRQGTLHVGDEIREINGISVANQTVEQLQKMLREMRGSITFKIVP [A29L]	-0.188 ± 0.041
VRLVQFQKNTDEPMKITLKMNELNHCIVARIMHGGMIHRQGTLHVGDEIREINGISVANQTVEQLQKMLREMRGSITFKIVP [G15K]	-0.538 ± 0.063
VRLVQFQKNTDEPMGITLKMNELNHCIVARIMHGGMIHRQGTLHVGDEIREINGISVANQTVEQLQKMTREMRGSITFKIVP [L69T]	-0.097 ± 0.027
VRLVQFQKNTDEPMGITLKMNELNHCIVARIMHGGMIHRQGTLHVGDEIREINGISVANQTVEQLQIMLREMRGSITFKIVP [K67I]	-0.06 ± 0.051
VRLVQFQKNTDEPMGITLKMNELNHCIVARIMHGGMIHRQGTLHVGDEIREINGIWVANQTVEQLQKMLREMRGSITFKIVP [S56W]	-0.275 ± 0.03
VRLVQFQKNTDEPMGITLKMNELNHCIVARIMHGGMIHRQGTLHVGDEIREINGIDVANQTVEQLQKMLREMRGSITFKIVP [S56D]	0.023 ± 0.032
VRLVQKQKNTDEPMGITLKMNELNHCIVARIMHGGMIHRQGTLHVGDEIREINGISVANQTVEQLQKMLREMRGSITFKIVP [F6K]	-0.674 ± 0.047
VRLVQFQKNTDEPMGITLKMNELNHCIVARIMHGGMIHRQGTLHVGDEIREINGISVANQTVEQLQKMLREMYGSITFKIVP [R73Y]	-0.157 ± 0.11
VRLVQFQKNTDEPMGITLKMNELNHCIVARIMHGGMIHRQGTLHVGDEIREINGISVANQTVEQLQKMLREMRGSIMFKIVP [T77M]	-0.309 ± 0.22
VRLVQFQKNTDEPMGITLKMNELFHCIVARIMHGGMIHRQGTLHVGDEIREINGISVANQTVEQLQKMLREMRGSITFKIVP [N24F]	-0.252 ± 0.045
VRLVQFQKNTDEPMGITLKMNELCHCIVARIMHGGMIHRQGTLHVGDEIREINGISVANQTVEQLQKMLREMRGSITFKIVP [N24C]	-0.159 ± 0.033
VSLVQFQKNTDEPMGITLKMNELNHCIVARIMHGGMIHRQGTLHVGDEIREINGISVANQTVEQLQKMLREMRGSITFKIVP [R2S]	-0.084 ± 0.036
VILVQFQKNTDEPMGITLKMNELNHCIVARIMHGGMIHRQGTLHVGDEIREINGISVANQTVEQLQKMLREMRGSITFKIVP [R2I]	-0.029 ± 0.06
VRLVQFQKNTDEPMGITLKMNELNHDIVARIMHGGMIHRQGTLHVGDEIREINGISVANQTVEQLQKMLREMRGSITFKIVP [C26D]	-0.868 ± 0.091
VRLDQFQKNTDEPMGITLKMNELNHCIVARIMHGGMIHRQGTLHVGDEIREINGISVANQTVEQLQKMLREMRGSITFKIVP [V4D]	-0.842 ± 0.1
VRLVQFQKNTDEPMGITLKMNELNHCIVARIMHGGMIHRQGTLHVGDEIREINGISVANQTVEQLQKMLREMRGSITFKICP [V81C]	-0.036 ± 0.048
VRLVQFQKNTDEPMGIMLKMNELNHCIVARIMHGGMIHRQGTLHVGDEIREINGISVANQTVEQLQKMLREMRGSITFKIVP [T17M]	-0.046 ± 0.029
VRLVQFQKNTDEPMGISLKMNELNHCIVARIMHGGMIHRQGTLHVGDEIREINGISVANQTVEQLQKMLREMRGSITFKIVP [T17S]	-0.051 ± 0.023
VRLVQFQKNTDEPMGITLKMNELNHCIVARIMHGGMIHVQGTLHVGDEIREINGISVANQTVEQLQKMLREMRGSITFKIVP [R39V]	-0.197 ± 0.022
VRLVQFQKNTDEPMGITLKMNELNHCIVARIMHGGMIHPQGTLHVGDEIREINGISVANQTVEQLQKMLREMRGSITFKIVP [R39P]	-0.469 ± 0.04
